Laboratory results: patent publication US12139520B2 (priority 2020, dated 2024)
Bridge positions count the residues as written; N and C are the ends. Square brackets hold non-standard residues; d marks the D form. Ends that are not written are not given here. Hyp = O=C(O)[C@@H]1C[C@@H](O)CN1; Cit = NC(=O)NCCC[C@H](N)C(=O)O

T1: hAMY3R (human, UniProt P30988)
T1 sequence 1: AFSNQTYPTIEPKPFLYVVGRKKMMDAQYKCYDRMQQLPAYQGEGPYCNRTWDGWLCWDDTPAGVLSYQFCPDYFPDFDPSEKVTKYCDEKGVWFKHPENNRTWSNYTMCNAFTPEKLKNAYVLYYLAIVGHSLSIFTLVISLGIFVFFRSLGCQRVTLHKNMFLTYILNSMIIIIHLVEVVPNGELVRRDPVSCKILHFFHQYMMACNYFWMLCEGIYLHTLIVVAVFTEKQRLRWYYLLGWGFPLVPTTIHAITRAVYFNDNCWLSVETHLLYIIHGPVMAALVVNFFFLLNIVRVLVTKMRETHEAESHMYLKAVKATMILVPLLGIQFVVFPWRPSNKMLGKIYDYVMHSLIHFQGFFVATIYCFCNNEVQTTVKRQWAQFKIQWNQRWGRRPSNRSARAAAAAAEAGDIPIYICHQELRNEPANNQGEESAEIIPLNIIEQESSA
T1 sequence 2: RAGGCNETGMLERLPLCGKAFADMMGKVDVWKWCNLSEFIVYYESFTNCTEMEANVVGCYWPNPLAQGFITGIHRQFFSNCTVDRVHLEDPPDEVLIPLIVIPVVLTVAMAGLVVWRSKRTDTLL


Experiments:
hAMY3R = target: T1, hAMY3R; assay: cell-based or functional assay
hAM1R = hAM1R (human, UniProt Q16602); assay: cell-based or functional assay

Binder	hAMY3R EC50 (cAMP) (hAMY3R) [nM]	hAM1R EC50 (cAMP) (hAM1R) [nM]
GCRTGTCTVQ[Cit]LAHQIYQFTDKDKDNVAPRTKVGPQGY-NH2 (disulfide 2-7 (inferred); ends not checked) [SEQ ID NO: 298]	0.057	> 5000
GCRFGTCTVQ[Cit]LAHQIYQFTDKDKDNVAPRTNVSPQG[Hyp]-NH2 (disulfide 2-7 (inferred); ends not checked) [SEQ ID NO: 283]	0.035	> 5000
GCRFGTCTVQ[Cit]LAHQIYQFTDKDKDNVAPRSNVSPQGY-NH2 (disulfide 2-7 (inferred); ends not checked) [SEQ ID NO: 286]	0.025	139
GCRFGTCTVQ[Cit]LAHQIYQFTDKDKDNVAPRSNVGPQG[Hyp]-NH2 (disulfide 2-7 (inferred); ends not checked) [SEQ ID NO: 289]	0.005	3500
GCRTGTCTVQ[Cit]LAHQIYQFTDKDKDNVAPRSNIGPNG[Hyp]-NH2 (disulfide 2-7 (inferred); ends not checked) [SEQ ID NO: 297]	0.026	> 5000
GCRFGTCTVQ[Cit]LAHQIYQFTDKDKDNVAPRSKIGPQG[Hyp]-NH2 (disulfide 2-7 (inferred); ends not checked) [SEQ ID NO: 284]	0.028	591
GCRFGTCTVQ[Cit]LAHQIYQFTDKDKDNVAPRSNVSPQG[Hyp]-NH2 (disulfide 2-7 (inferred); ends not checked) [SEQ ID NO: 293]	0.063	> 5000
GCRFGTCTVQ[Cit]LAHQIYQFTDKDKDNVAPRTKVSPNG[Hyp]-NH2 (disulfide 2-7 (inferred); ends not checked) [SEQ ID NO: 288]	0.03	> 5000
GCRTGTCTVQ[Cit]LAHQIYQFTDKDKDNVAPRSKVGPNG[Hyp]-NH2 (disulfide 2-7 (inferred); ends not checked) [SEQ ID NO: 290]	0.047	> 5000
GCRWGTCTVQ[Cit]LAHQIYQFTDKDKDNVAPRSKISPQT[Hyp]-NH2 (disulfide 2-7 (inferred); ends not checked) [SEQ ID NO: 296]	0.392	> 5000
GCRIGTCTVQ[Cit]LAHQIYQFTDKFKDNVAPRSKISPQT[Hyp]-NH2 (disulfide 2-7 (inferred); ends not checked) [SEQ ID NO: 295]	0.194	> 5000
GCRFGTCTVQ[Cit]LAHQIYQFTDKDKDNVAPRTKISPQG[Hyp]-NH2 (disulfide 2-7 (inferred); ends not checked) [SEQ ID NO: 294]	0.045	> 5000
KCNTATCTVQRLAHQIYQFTDKDKDNVAPTNVGSNG[Hyp]-NH2 (disulfide 2-7 (inferred); ends not checked) [SEQ ID NO: 31]	0.008	> 5000
GCRTGTCTVQ[Cit]LAHQIYQFTDKDKDNVAPRSKVGPQGY-NH2 (disulfide 2-7 (inferred); ends not checked) [SEQ ID NO: 285]	0.157	> 5000
KCNTATCTVQRLAHQIYQFTKDKDNVAPPTNVGSNG[Hyp]-NH2 (disulfide 2-7 (inferred); not fully specified; ends not checked) [SEQ ID NO: 29]	0.008	> 5000
GCRFGTCTVQ[Cit]LAHQIYQFTDKDKDNVAPRTKVSPQG[Hyp]-NH2 (disulfide 2-7 (inferred); ends not checked) [SEQ ID NO: 287]	0.055	> 5000
KCNTATCTVQRLAHQIYQFTDKDKDNVPPTNVGSNG[Hyp]-NH2 (disulfide 2-7 (inferred); not fully specified; ends not checked) [SEQ ID NO: 30]	0.008	> 5000
GCRFGTCTVQ[Cit]LAHQIYQFTDKDKDNVAPRTNISPQG[Hyp]-NH2 (disulfide 2-7 (inferred); ends not checked) [SEQ ID NO: 291]	0.064	> 5000
GCRTGTCTVQ[Cit]LAHQIYQFTDKDKDNVAPRTKVGPQG[Hyp]-NH2 (disulfide 2-7 (inferred); ends not checked) [SEQ ID NO: 292]	0.07	> 5000

Next, values leading:

hAMY3R EC50 (cAMP) (hAMY3R) [nM]	hAM1R EC50 (cAMP) (hAM1R) [nM]	Binder
0.139	> 5000	GCRTGTCTVQ[Cit]LAHQIYQFTDKDKDNVAPRSNVSPNG[Hyp]-NH2 (disulfide 2-7 (inferred); ends not checked) [SEQ ID NO: 304]
0.071	4330	GCRTGTCTVQ[Cit]LAHQIYQFTDKDKDNVAPRTNVSPNG[Hyp]-NH2 (disulfide 2-7 (inferred); ends not checked) [SEQ ID NO: 302]
0.014	> 5000	KCNTATCTVQWLAHAIYQFTDKDKDNVAPPTNVGSNG[Hyp]-NH2 (disulfide 2-7 (inferred); ends not checked) [SEQ ID NO: 308]
0.025	> 5000	KCNTATCTVQWLAHQIAQFTDKDKDNVAPPTNVGSNG[Hyp]-NH2 (disulfide 2-7 (inferred); ends not checked) [SEQ ID NO: 309]
0.003	> 5000	KCNTSTCTVAWLADQITQFSDKDKANVSPPTEVGPNS[Hyp]-NH2 (disulfide 2-7 (inferred); ends not checked) [SEQ ID NO: 310]
0.085	> 5000	GCRFGTCTVQ[Cit]LAHQIYQFTDKDKDNVAPRSKVSPQG[Hyp]-NH2 (disulfide 2-7 (inferred); ends not checked) [SEQ ID NO: 305]
0.11	> 5000	GCRTGTCTVQ[Cit]LAHQIYQFTDKDKDNVAPRSKIGPNG[Hyp]-NH2 (disulfide 2-7 (inferred); ends not checked) [SEQ ID NO: 299]
0.103	> 5000	GCRTGTCTVQ[Cit]LAHQIYQFTDKDKDNVAPRSNIGPQG[Hyp]-NH2 (disulfide 2-7 (inferred); ends not checked) [SEQ ID NO: 303]
0.06	> 5000	GCRFGTCTVQWLANFLYQFTDKDKDNVAPRTNVGPQGY [SEQ ID NO: 311]
0.003	> 5000	KCNTSTCTVAWLADQITQFSNKDKAQVSPPTEVGPNS[Hyp]-NH2 (disulfide 2-7 (inferred); ends not checked) [SEQ ID NO: 306]
0.01	> 5000	RCNASTCTVNWLADQITQFSNKDKAQVSPPTEVGPNS[Hyp]-NH2 (disulfide 2-7 (inferred); ends not checked) [SEQ ID NO: 307]
0.076	> 5000	GCRFGTCTVQ[Cit]LAHQIYQFTDKDKDNVAPRSNISPQG[Hyp]-NH2 (disulfide 2-7 (inferred); ends not checked) [SEQ ID NO: 300]
0.138	> 5000	GCRTGTCTVQ[Cit]LAHQIYQFTDKDKDNVAPRTKIGPQG[Hyp]-NH2 (disulfide 2-7 (inferred); ends not checked) [SEQ ID NO: 301]
